Laboratory results published in patent US20220298218A1 (ANTAG THERAPEUTICS, published 2022).
*1 amine or outer side, *2 acyl side, *3 side chain or, on linkers, in order; H or OH if unused. Where no end group is shown, it is not given here. Side-chain parts run from the residue outwards. The star is where a group is joined. C18 diacid = O=C(O)CCCCCCCCCCCCCCCCC(=O)*; γGlu = O=C(O)[C@H](CCC(=O)[*:2])N[*:1]; Stearoyl = CCCCCCCCCCCCCCCCCC(=O)*; AEEA = NCCOCCOCC(=O)O

T1: human GIP receptor (human, UniProt P48546 22-466)
T1 sequence (looked up): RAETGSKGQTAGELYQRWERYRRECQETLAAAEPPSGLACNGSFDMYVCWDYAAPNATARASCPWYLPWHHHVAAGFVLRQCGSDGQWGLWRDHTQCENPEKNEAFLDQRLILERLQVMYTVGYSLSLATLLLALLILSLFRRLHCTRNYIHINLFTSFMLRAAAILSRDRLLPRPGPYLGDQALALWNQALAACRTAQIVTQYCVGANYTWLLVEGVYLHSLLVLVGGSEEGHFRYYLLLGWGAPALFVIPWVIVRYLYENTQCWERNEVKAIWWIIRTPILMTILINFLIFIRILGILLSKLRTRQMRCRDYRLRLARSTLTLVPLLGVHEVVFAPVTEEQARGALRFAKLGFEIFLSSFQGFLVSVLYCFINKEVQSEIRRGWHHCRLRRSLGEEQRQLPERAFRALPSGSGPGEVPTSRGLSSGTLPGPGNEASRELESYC

B1: AT562 (peptide)
peptide: TFISDYSK([AEEA-AEEA-γGlu-C18 diacid])AMDKIHQQDFVNWLLAQKGKKNDW-OH
modifications: N-terminus assumed
SMILES: CC[C@H](C)[C@H](NC(=O)[C@H](CCCCN)NC(=O)[C@H](CC(=O)O)NC(=O)[C@H](CCSC)NC(=O)[C@H](C)NC(=O)[C@H](CCCCNC(=O)COCCOCCNC(=O)COCCOCCNC(=O)CC[C@H](NC(=O)CCCCCCCCCCCCCCCCC(=O)O)C(=O)O)NC(=O)[C@H](CO)NC(=O)[C@H](Cc1ccc(O)cc1)NC(=O)[C@H](CC(=O)O)NC(=O)[C@H](CO)NC(=O)[C@@H](NC(=O)[C@H](Cc1ccccc1)NC(=O)[C@@H](N)[C@@H](C)O)[C@@H](C)CC)C(=O)N[C@@H](Cc1c[nH]cn1)C(=O)N[C@@H](CCC(N)=O)C(=O)N[C@@H](CCC(N)=O)C(=O)N[C@@H](CC(=O)O)C(=O)N[C@@H](Cc1ccccc1)C(=O)N[C@H](C(=O)N[C@@H](CC(N)=O)C(=O)N[C@@H](Cc1c[nH]c2ccccc12)C(=O)N[C@@H](CC(C)C)C(=O)N[C@@H](CC(C)C)C(=O)N[C@@H](C)C(=O)N[C@@H](CCC(N)=O)C(=O)N[C@@H](CCCCN)C(=O)NCC(=O)N[C@@H](CCCCN)C(=O)N[C@@H](CCCCN)C(=O)N[C@@H](CC(N)=O)C(=O)N[C@@H](CC(=O)O)C(=O)N[C@@H](Cc1c[nH]c2ccccc12)C(=O)O)C(C)C
B2: AT548 (peptide)
peptide: EGTFISDYSIAMDKIHQK([AEEA-AEEA-γGlu-C18 diacid])DFVNWLLAQKGKKNDW-OH
modifications: N-terminus assumed
SMILES: CC[C@H](C)[C@H](NC(=O)[C@H](CO)NC(=O)[C@H](Cc1ccc(O)cc1)NC(=O)[C@H](CC(=O)O)NC(=O)[C@H](CO)NC(=O)[C@@H](NC(=O)[C@H](Cc1ccccc1)NC(=O)[C@@H](NC(=O)CNC(=O)[C@@H](N)CCC(=O)O)[C@@H](C)O)[C@@H](C)CC)C(=O)N[C@@H](C)C(=O)N[C@@H](CCSC)C(=O)N[C@@H](CC(=O)O)C(=O)N[C@@H](CCCCN)C(=O)N[C@H](C(=O)N[C@@H](Cc1c[nH]cn1)C(=O)N[C@@H](CCC(N)=O)C(=O)N[C@@H](CCCCNC(=O)COCCOCCNC(=O)COCCOCCNC(=O)CC[C@H](NC(=O)CCCCCCCCCCCCCCCCC(=O)O)C(=O)O)C(=O)N[C@@H](CC(=O)O)C(=O)N[C@@H](Cc1ccccc1)C(=O)N[C@H](C(=O)N[C@@H](CC(N)=O)C(=O)N[C@@H](Cc1c[nH]c2ccccc12)C(=O)N[C@@H](CC(C)C)C(=O)N[C@@H](CC(C)C)C(=O)N[C@@H](C)C(=O)N[C@@H](CCC(N)=O)C(=O)N[C@@H](CCCCN)C(=O)NCC(=O)N[C@@H](CCCCN)C(=O)N[C@@H](CCCCN)C(=O)N[C@@H](CC(N)=O)C(=O)N[C@@H](CC(=O)O)C(=O)N[C@@H](Cc1c[nH]c2ccccc12)C(=O)O)C(C)C)[C@@H](C)CC
B3: AT547 (peptide)
peptide: EGTFISDYSIAMDKIKQQDFVNWLLAQKGKKNDW
HELM: PEPTIDE1{E.G.T.F.I.S.D.Y.S.I.A.M.D.K.I.K.Q.Q.D.F.V.N.W.L.L.A.Q.K.G.K.K.N.D.W}|PEPTIDE2{[CCCCCCCCCCCCCCCCCC(=O)[*:2]].[gGlu].[gGlu]}$PEPTIDE1,PEPTIDE2,16:R3-3:R2$$$V2.0; N-terminus assumed
SMILES: CCCCCCCCCCCCCCCCCC(=O)N[C@@H](CCC(=O)N[C@@H](CCC(=O)NCCCC[C@H](NC(=O)[C@@H](NC(=O)[C@H](CCCCN)NC(=O)[C@H](CC(=O)O)NC(=O)[C@H](CCSC)NC(=O)[C@H](C)NC(=O)[C@@H](NC(=O)[C@H](CO)NC(=O)[C@H](Cc1ccc(O)cc1)NC(=O)[C@H](CC(=O)O)NC(=O)[C@H](CO)NC(=O)[C@@H](NC(=O)[C@H](Cc1ccccc1)NC(=O)[C@@H](NC(=O)CNC(=O)[C@@H](N)CCC(=O)O)[C@@H](C)O)[C@@H](C)CC)[C@@H](C)CC)[C@@H](C)CC)C(=O)N[C@@H](CCC(N)=O)C(=O)N[C@@H](CCC(N)=O)C(=O)N[C@@H](CC(=O)O)C(=O)N[C@@H](Cc1ccccc1)C(=O)N[C@H](C(=O)N[C@@H](CC(N)=O)C(=O)N[C@@H](Cc1c[nH]c2ccccc12)C(=O)N[C@@H](CC(C)C)C(=O)N[C@@H](CC(C)C)C(=O)N[C@@H](C)C(=O)N[C@@H](CCC(N)=O)C(=O)N[C@@H](CCCCN)C(=O)NCC(=O)N[C@@H](CCCCN)C(=O)N[C@@H](CCCCN)C(=O)N[C@@H](CC(N)=O)C(=O)N[C@@H](CC(=O)O)C(=O)N[C@@H](Cc1c[nH]c2ccccc12)C(=O)O)C(C)C)C(=O)O)C(=O)O
B4: AT549 (peptide)
peptide: EGTFISDYSIAMDKIHQK([AEEA-AEEA-γGlu-C18 diacid])DFVNWLLAQKGKKNDW-NH2
modifications: N-terminus assumed
SMILES: CC[C@H](C)[C@H](NC(=O)[C@H](CO)NC(=O)[C@H](Cc1ccc(O)cc1)NC(=O)[C@H](CC(=O)O)NC(=O)[C@H](CO)NC(=O)[C@@H](NC(=O)[C@H](Cc1ccccc1)NC(=O)[C@@H](NC(=O)CNC(=O)[C@@H](N)CCC(=O)O)[C@@H](C)O)[C@@H](C)CC)C(=O)N[C@@H](C)C(=O)N[C@@H](CCSC)C(=O)N[C@@H](CC(=O)O)C(=O)N[C@@H](CCCCN)C(=O)N[C@H](C(=O)N[C@@H](Cc1c[nH]cn1)C(=O)N[C@@H](CCC(N)=O)C(=O)N[C@@H](CCCCNC(=O)COCCOCCNC(=O)COCCOCCNC(=O)CC[C@H](NC(=O)CCCCCCCCCCCCCCCCC(=O)O)C(=O)O)C(=O)N[C@@H](CC(=O)O)C(=O)N[C@@H](Cc1ccccc1)C(=O)N[C@H](C(=O)N[C@@H](CC(N)=O)C(=O)N[C@@H](Cc1c[nH]c2ccccc12)C(=O)N[C@@H](CC(C)C)C(=O)N[C@@H](CC(C)C)C(=O)N[C@@H](C)C(=O)N[C@@H](CCC(N)=O)C(=O)N[C@@H](CCCCN)C(=O)NCC(=O)N[C@@H](CCCCN)C(=O)N[C@@H](CCCCN)C(=O)N[C@@H](CC(N)=O)C(=O)N[C@@H](CC(=O)O)C(=O)N[C@@H](Cc1c[nH]c2ccccc12)C(N)=O)C(C)C)[C@@H](C)CC
B5: AT563 (peptide)
peptide: TFISDYSIAMDKIK([AEEA-AEEA-γGlu-C18 diacid])QQDFVNWLLAQKGKKNDW-OH
modifications: N-terminus assumed
SMILES: CC[C@H](C)[C@H](NC(=O)[C@H](CO)NC(=O)[C@H](Cc1ccc(O)cc1)NC(=O)[C@H](CC(=O)O)NC(=O)[C@H](CO)NC(=O)[C@@H](NC(=O)[C@H](Cc1ccccc1)NC(=O)[C@@H](N)[C@@H](C)O)[C@@H](C)CC)C(=O)N[C@@H](C)C(=O)N[C@@H](CCSC)C(=O)N[C@@H](CC(=O)O)C(=O)N[C@@H](CCCCN)C(=O)N[C@H](C(=O)N[C@@H](CCCCNC(=O)COCCOCCNC(=O)COCCOCCNC(=O)CC[C@H](NC(=O)CCCCCCCCCCCCCCCCC(=O)O)C(=O)O)C(=O)N[C@@H](CCC(N)=O)C(=O)N[C@@H](CCC(N)=O)C(=O)N[C@@H](CC(=O)O)C(=O)N[C@@H](Cc1ccccc1)C(=O)N[C@H](C(=O)N[C@@H](CC(N)=O)C(=O)N[C@@H](Cc1c[nH]c2ccccc12)C(=O)N[C@@H](CC(C)C)C(=O)N[C@@H](CC(C)C)C(=O)N[C@@H](C)C(=O)N[C@@H](CCC(N)=O)C(=O)N[C@@H](CCCCN)C(=O)NCC(=O)N[C@@H](CCCCN)C(=O)N[C@@H](CCCCN)C(=O)N[C@@H](CC(N)=O)C(=O)N[C@@H](CC(=O)O)C(=O)N[C@@H](Cc1c[nH]c2ccccc12)C(=O)O)C(C)C)[C@@H](C)CC
B6: AT546 (peptide)
peptide: EGTFISDYSIAMDKIK([AEEA-AEEA-γGlu-Stearoyl])QQDFVNWLLAQKGKKNDW-OH
modifications: N-terminus assumed
SMILES: CCCCCCCCCCCCCCCCCC(=O)N[C@@H](CCC(=O)NCCOCCOCC(=O)NCCOCCOCC(=O)NCCCC[C@H](NC(=O)[C@@H](NC(=O)[C@H](CCCCN)NC(=O)[C@H](CC(=O)O)NC(=O)[C@H](CCSC)NC(=O)[C@H](C)NC(=O)[C@@H](NC(=O)[C@H](CO)NC(=O)[C@H](Cc1ccc(O)cc1)NC(=O)[C@H](CC(=O)O)NC(=O)[C@H](CO)NC(=O)[C@@H](NC(=O)[C@H](Cc1ccccc1)NC(=O)[C@@H](NC(=O)CNC(=O)[C@@H](N)CCC(=O)O)[C@@H](C)O)[C@@H](C)CC)[C@@H](C)CC)[C@@H](C)CC)C(=O)N[C@@H](CCC(N)=O)C(=O)N[C@@H](CCC(N)=O)C(=O)N[C@@H](CC(=O)O)C(=O)N[C@@H](Cc1ccccc1)C(=O)N[C@H](C(=O)N[C@@H](CC(N)=O)C(=O)N[C@@H](Cc1c[nH]c2ccccc12)C(=O)N[C@@H](CC(C)C)C(=O)N[C@@H](CC(C)C)C(=O)N[C@@H](C)C(=O)N[C@@H](CCC(N)=O)C(=O)N[C@@H](CCCCN)C(=O)NCC(=O)N[C@@H](CCCCN)C(=O)N[C@@H](CCCCN)C(=O)N[C@@H](CC(N)=O)C(=O)N[C@@H](CC(=O)O)C(=O)N[C@@H](Cc1c[nH]c2ccccc12)C(=O)O)C(C)C)C(=O)O

Molecular target: T1, human GIP receptor
Test: cell-based or functional assay

Row | Binder | cAMP agonism % Emax [%] | cAMP antagonism [nM] | cAMP antagonism % inhib [%] | cAMP antagonism pIC50
1 | B1 | 0 | 3.98 | 82 | 8.4
2 | B2 | 0 | 126 | 86 | 6.9
3 | TFISDYK([γGlu-γGlu-C18])IAMDKIHQQDFVNWLLAQKGKKNDW-OH [AT561] | 0 | 11.2 | 97 | 8
4 | TFISDYK([AEEA-AEEA-γGlu-C18])IAMDKIHQQDFVNWLLAQKGKKNDW-OH [AT560] | – | 23.3 | 100 | 7.6
5 | B3 | 0 | 7.94 | 100 | 8.1
6 | B4 | 0 | 200 | 80 | 6.7
7 | B5 | 0 | 4.64 | 80 | 8.3
8 | B6 | 0 | 12.6 | 95 | 7.9
